# Laboratory results as given in patent US20230312750A1 (AD PHARMACEUTICALS, published 2023).
# B1: MAB1 (antibody, V domains shown)
# VH: EVQLVESGGGLVQPGRSLRLSCAASGFTFSSYSMNWVRQAPGKGLEWVSGISSSSSYISYADSVQGRFTISRDNGKNSLYLQMNSLRAEDTALYFCAREYDFWSAYYDAFDVWGQGTMVTVSS
# VL: QSELTQPRSVSGSPGQSVTISCTGTSRNIGGGNDVHWYQQHPGKAPKLLISGVIERSSGVPDRFSGSKSGNTASLTISGLQAEDEADYYCQSFDGSLSGSVFGTGTDVTVL
# B2: evolocumab (purchased from AMGEN) (antibody, V domains shown)
# VH: QVQLVQSGAEVKKPGASVKVSCKASGYTLTSYGISWVRQAPGQGLEWMGWVSFYNGNTNYAQKLQGRGTMTTDPSTSTAYMELRSLRSDDTAVYYCARGYGMDVWGQGTTVTVSS
# VL: QSALTQPASVSGSPGQSITISCTGTSSDVGGYNSVSWYQQHPGKAPKLMIYEVSNRPSGVSNRFSGSKSGNTASLTISGLQAEDEADYYCNSYTSTSMVFGGGTKLTVL
# Key:
# Experiment in all cases: cell-based or functional assay
# [1] = target: T1, PCSK9-his (wild-type PCSK9, prepared by Akeso Biopharma) (human, UniProt Q8NBP7 31-692, limits assumed)
# [2] = target: T1, PCSK9-his (wild-type PCSK9, prepared by …); remark: listed apart in the source
# [3] = target: PCSK9(D374Y)-his (Acrobio, cat. no. PCY-H5225) (UniProt Q8NBP7 31-692)
binder,measurement,setting,value
B1,"EC50 of MAB1 for inhibition of LDLR endocytosis by wild-type PCSK9 (BODIPY-LDL uptake, HepG2 cells)",[1],32.9 µg/mL
same,EC50 for MAB1 relieving the inhibition of LDL endocytosis in HepG2 cells by PCSK9,[2],13 µg/mL
B2,"EC50 for inhibition of LDLR endocytosis by wild-type PCSK9 (BODIPY-LDL uptake, HepG2 cells)",[1],30.8 µg/mL
same,"EC50 for inhibition of LDLR endocytosis by functionally enhanced mutant PCSK9 (PCSK9-D374Y) (BODIPY-LDL uptake, HepG2 cells)",[3],1.26 µg/mL
